Values of other authors as cited in article PMC5726918.

Molecular target: Asp3 (position 3, ---AADAA---)
Assay: potentiometry
Details: free peptide in solution

AADAA [Alanine-based pentapeptide AADAA (terminally blocked, uncharged) (synthetic)]
pKa: 3.9
